Measured values published in patent publication US20190375786A1, “STABLE PEPTIDES AND METHODS OF USE THEREOF” (Fred Hutchinson Cancer Research Center, priority 2016, published 2019).
No end group written: not given here.

Key:
[1] = Combined resistance grouping of hitchin peptides (FIG. 27, from Table 2 data); assay type: physicochemical; conditions: FIG. 27 grouping of hitchin peptides
Protocol: As shown by the data in TABLE 2, the tested peptides of the present disclosure show a range of resistance to proteases, reduction, and high temperature. The peptides were classified as high, medium, or low for each condition. […] For example, after a peptide is treated at 100° C., if the HPLC peak of the peptide is mostly absent as compared to HPLC peak of the peptide not treated at 100° C., then the peptide is classified as low or having low resistance to 100° C. After a peptide is treated with reducing conditions, if there is no or very minimal HPLC peak that overlaps with the HPLC peak of the peptide not treated with reducing conditions, then the peptide is classified as low or having low resistance to reducing conditions.
The peptides with the highest resistance data were further analyzed. […] The six peptides that were further tested were peptides comprising the sequences of SEQ ID NO: 27, SEQ ID NO: 24, SEQ ID NO: 6, SEQ ID NO: 10, SEQ ID NO: 12, and SEQ ID NO: 57, which were all hitchins. […] FIG. 27C is a sequence analysis of SEQ ID NO: 27, SEQ ID NO: 24, SEQ ID NO: 6, SEQ ID NO: 10, SEQ ID NO: 12, and SEQ ID NO: 57 from FIG. 27B. FIG. 27C identifies which amino acids are present at each position in SEQ ID NO: 27, SEQ ID NO: 24, SEQ ID NO: 6, SEQ ID NO: 10, SEQ ID NO: 12, and SEQ ID NO: 57. For example, at position one, all peptide sequences comprise a G amino acid residue; at position two, all peptide sequences comprise an S amino acid residue; at position three, all peptide sequences comprise either G, Q, or V amino acid, or null; and at position four, all peptide sequences comprise V, R, or K amino acid, or null. […] SEQ ID NO: 167 and SEQ ID NO: 168 describe sequences of peptides that are particularly resistant to reduction, pepsin, 75° C., and 100° C., which would typically degrade peptides. […] Additionally, SEQ ID NO: 169 describes sequences of peptides that are also particularly resistant to trypsin.

[2] = Resistance to reduction by DTT, RP-HPLC; assay type: physicochemical
Summary of the method: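 Peptide (12.5 μg from a 2 mg/ml stock, or 0.015 mM final in PBS) was held 30 min at room temperature with or without 10 mM DTT. Reduced and non-reduced forms were compared by C-18 RP-HPLC using a 5–45% acetonitrile/0.1% TFA gradient over 10 min, with detection at 214 and 280 nm.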

[3] = Resistance to elevated temperature, HPLC; assay type: physicochemical
Summary of the method: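 Peptides were incubated at room temperature, 70° C or 100° C for one hour in ddH2O; another protocol used 70° C, 75° C or 100° C for one hour in 0.5 mM PBS, then pelleting and analysis of the supernatant. Remaining peptide was measured by C-18 RP-HPLC, 5–45% acetonitrile/0.1% TFA over 10 min.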

[4] = Intravenous and oral administration of 14C-radiolabeled peptide to mice; plasma, urine, feces by liquid scintillation counting and HPLC; assay type: in vivo, female Harlan athymic nude mice; conditions: mouse
Protocol: This example describes oral and intravenous administration of peptides of this disclosure. […] A peptide of SEQ ID NO: 27 was radiolabeled by the methods described in EXAMPLE 4, and was then administered intravenously or orally to female Harlan athymic nude mice, 6-8 weeks of age. Radiolabeled peptides of SEQ ID NO: 27 (SEQ ID NO: 27-r) was administered intravenously (IV) at a dose of 4.8 μCi/20 nmol. SEQ ID NO: 27-r was administered orally (PO) by oral gavage at a dose of 24 μCi/100 nmol. Mice were euthanized at various time points by CO2 asphyxiation and biological fluids were collected, including blood, urine, and feces. Samples were analyzed by RP-HPLC and liquid scintillation counting to quantify the concentration or dose of radioactivity and/or intact peptide recovered in plasma, urine, and feces. Urine was collected by abdominal palpitation immediately before CO2 asphyxiation. Blood was collected by cardiac puncture immediately after CO2 asphyxiation and centrifuged to separate plasma. Feces were collected either before or after CO2 asphyxiation by palpitation of the colon. Samples were analyzed by HPLC to quantify the concentration or dose of intact peptide recovered in plasma, urine, and feces. For HPLC analysis, urine samples were first diluted at a 1:20 ratio in water and plasma samples were diluted at a 1:5 ratio in water. Feces samples were dissolved in Tris buffer, centrifuged to remove the insoluble fraction, and supernatants were diluted at a 1:1 ratio in water.

trypsin = trypsin (Sus scrofa, UniProt P00761); experiment: Trypsin digestion resistance of soluble peptide, RP-HPLC; assay type: in vitro ADME, porcine; set-up: purchased Sigma Aldrich 6567; conditions: 500 U/ml trypsin, 30 minutes at 37.5° C.; HPLC peak vs untreated peptide
Chain of trypsin (P00761 9-231): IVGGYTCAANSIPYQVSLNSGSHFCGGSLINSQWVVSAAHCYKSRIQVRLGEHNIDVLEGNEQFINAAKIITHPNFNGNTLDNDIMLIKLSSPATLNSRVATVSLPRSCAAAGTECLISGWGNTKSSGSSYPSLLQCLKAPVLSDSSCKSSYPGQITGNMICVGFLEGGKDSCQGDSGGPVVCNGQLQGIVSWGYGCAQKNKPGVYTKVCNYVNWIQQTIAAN
Summary of the method: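 Read-out was RP-HPLC (C-18, water/acetonitrile with 0.1% TFA, 5-45% over 10 min) of peptide left after trypsin treatment. Digest: 12.5 μg peptide, 500 U/ml porcine trypsin, PBS, 37.5° C for 30 min, stopped by soybean trypsin inhibitor; samples then reduced (10 mM DTT) or left non-reduced.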

pepsin = pepsin (Sus scrofa, UniProt P00791); experiment: Pepsin digestion resistance in simulated gastric fluid, RP-HPLC; assay type: in vitro ADME, porcine; set-up: purchased Sigma Aldrich P7012; conditions: 500 U/ml pepsin in SGF pH 1.05, 30 minutes at 37.5° C.; HPLC peak vs untreated peptide
Chain of pepsin (P00791 60-385): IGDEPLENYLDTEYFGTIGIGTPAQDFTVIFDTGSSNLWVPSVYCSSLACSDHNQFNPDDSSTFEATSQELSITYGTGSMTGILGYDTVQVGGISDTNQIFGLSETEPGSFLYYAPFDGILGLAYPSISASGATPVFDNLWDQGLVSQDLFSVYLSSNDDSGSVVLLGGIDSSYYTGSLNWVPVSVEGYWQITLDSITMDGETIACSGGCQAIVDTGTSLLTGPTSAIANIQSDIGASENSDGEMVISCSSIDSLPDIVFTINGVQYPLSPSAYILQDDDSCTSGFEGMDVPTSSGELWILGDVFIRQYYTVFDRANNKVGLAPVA
Summary of the method: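 Digestion resistance read by reversed-phase HPLC (C-18, 0.1% TFA, 5–45% acetonitrile over 10 min; 214/280 nm) after 12.5 μg peptide spent 30 min at 37.5 °C in pH 1.05 simulated gastric fluid, with or without 500 U/ml pepsin. Some samples quenched with Tris base and DTT.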

[5] = SYPRO Orange melting assay; assay type: physicochemical; conditions: heating from 20° C. to 95° C.
Protocol: Protein secondary structures were assessed using Circular Dichrosim (CD). CD spectra were measured with a Jasco J-720W spectropolarimeter using a 1.0 mm path length cell. Protein samples in 10 mM phosphate buffer (pH=7.4) were at 25-30 μM protein concentration. Samples were analyzed at wavelength ranges of […]. Data were expressed in terms of relative ellipticity [θ]; (mdeg). To determine thermal stability of proteins, samples were subjected to incremental increase in temperature at a ramp of 2° C./min from 20° C. to 95° C. Stability and protein unfolding were monitored at 220 and 215 for α-helix and β-sheet secondary structures, respectively. Data are expressed in terms of relative ellipticity [θ], reported in mdeg. For SEQ ID NO: 43 and its point mutant variants, no changes to the α-helix-dominated structure were observed upon heating up to 95° C. […] Additionally, protein melting temperature (Tm) determination was performed by monitoring protein unfolding using SYPRO Orange dye (Molecular Probes). In brief, 0.1 mg/mL protein sample in 20 μL total volume PBS buffer were mixed with 24, of 10× SYPRO Orange dye. Dye intercalation into the hydrophobic protein core following protein unfolding was assayed using the C1000 Touch Thermal Cycler with CFX96 Deep Well Real-Time System (BioRad). Samples were heated from 20° C. to 95° C. with stepwise increments of 0.5° C. per minute and a 5 sec hold step for every point, followed by fluorescence reading. Tm were calculated by analyzing the derivatives of Relative florescence Units (RFU). FIG. 17D illustrates this SYPRO Orange melting assay of Peptides.

GSQVSTNKKCSNTSQCYKTCEKVVGVAAGKCMNGKCICYP [SEQ ID NO: 18]
combined resistance to reduction, pepsin and elevated temperatures such as 75° C. and 100° C. [1]: not highly resistant

GSVRIPVSCKHSGQCLKPCKDAGMRFGKCMNGKCDCTPK [SEQ ID NO: 24]
combined resistance to reduction, pepsin and elevated temperatures such as 75° C. and 100° C. [1]: highly resistant

GSGVPTDVKCRGSPQCIQPCKDAGMRFGKCMNGKCHCTPK [SEQ ID NO: 56]
combined resistance to reduction, pepsin and elevated temperatures such as 75° C. and 100° C. [1]: not highly resistant

GSQIDTNVKCSGSSKCVKICIDRYNTRGAKCINGRCTCYP [SEQ ID NO: 35]
combined resistance to reduction, pepsin and elevated temperatures such as 75° C. and 100° C. [1]: not highly resistant

GSNFKVEGACSKPCRKYCIDKGARNGKCINGRCHCYY [SEQ ID NO: 5]
combined resistance to reduction, pepsin and elevated temperatures such as 75° C. and 100° C. [1]: not highly resistant
resistance to reduction by DTT (in words) ([2]; 10 mM DTT, HPLC vs non-reduced peptide): resistant

GSISIGIKCSPSIDLCEGQCRIRKYFTGYCSGDTCHCSG [SEQ ID NO: 3]
resistance to incubation at 70° C. (in words) ([3]; 70° C. for 1 hour, HPLC): resistant
resistance to incubation at 100° C. (in words) ([3]; 100° C. for 1 hour, HPLC): various degrees of degradation
combined resistance to reduction, pepsin and elevated temperatures such as 75° C. and 100° C. [1]: not highly resistant

GSVVIGQRCYRSPDCYSACKKLVGKATGKCTNGRCDC [SEQ ID NO: 36]
combined resistance to reduction, pepsin and elevated temperatures such as 75° C. and 100° C. [1]: not highly resistant

GSRPTDIKCSASYQCFPVCKSRFGKTNGRCVNGLCDCF [SEQ ID NO: 10]
combined resistance to reduction, pepsin and elevated temperatures such as 75° C. and 100° C. [1]: highly resistant

SEQ ID NO: 27-r: radiolabeled peptide of SEQ ID NO: 27, by reductive methylation with 14C formaldehyde (GSGVPINVKCRGSRDCLDPCKKAGMRFGKCINSKCHCTP; cysteine pairing not given here; also: radiolabeled by reductive methylation with 14C formaldehyde (sites not given here))
radioactivity in urine ([4]; IV 20 nmol and PO 100 nmol): some radioactivity from the administered peptide was detected
time up to which radioactive signal from the dosed peptide was present in plasma ([4]; IV 20 nmol and PO 100 nmol): at least 50 hours
plasma radioactivity as percent of the administered dose ([4]; IV, 20 nmol (4.8 μCi 14C)): ~10%
nature of radioactively detected peptide in plasma (intact vs fragments) ([4]; PO 100 nmol, tandem HPLC and liquid scintillation counting): nearly all of the radioactively detected peptide in plasma was due to fragments
intact peptide in feces ([4]; PO 100 nmol, tandem HPLC and liquid scintillation counting, 3 and 8 hours): detected
plasma radioactivity as percent of the administered dose ([4]; PO by gavage, 100 nmol (24 μCi 14C)): ~1%

GSAVCNLKRCQLSCRSLGLLGKCIGDKCECVKHG [SEQ ID NO: 8]
combined resistance to reduction, pepsin and elevated temperatures such as 75° C. and 100° C. [1]: not highly resistant

GSQKILSNRCNNSSECIPHCIRIFGTRAAKCINRKCYCYP [SEQ ID NO: 6]
combined resistance to reduction, pepsin and elevated temperatures such as 75° C. and 100° C. [1]: highly resistant

GSQVQTNVKCQGGSCASVCRREIGVAAGKCINGKCVCYRN [SEQ ID NO: 30]
combined resistance to reduction, pepsin and elevated temperatures such as 75° C. and 100° C. [1]: not highly resistant

13 (GSAEIIRCSGTRECYAPCQKLTGCLNAKCMNKACKCYGCV) [compound 13]
Resistance to Temperature (75° C.) ([3]; 75° C. for one hour, HPLC peak vs untreated peptide): High (A peptide classified as high indicates that the majority (at least 75%) of the HPLC peak of the treated peptide is still present as compared to the HPLC peak of the untreated peptide)
Resistance to Temperature (100° C.) ([3]; 100° C. for one hour, HPLC peak vs untreated peptide): High (A peptide classified as high indicates that the majority (at least 75%) of the HPLC peak of the treated peptide is still present as compared to the HPLC peak of the untreated peptide)
Resistance to Trypsin (500 U/ml) (trypsin): Low (A peptide classified as low indicates that the majority (over 75%) of the HPLC peak of the treated peptide disappeared as compared to the HPLC peak of the untreated peptide)
Resistance to Pepsin (500 U/ml) (pepsin): High (A peptide classified as high indicates that the majority (at least 75%) of the HPLC peak of the treated peptide is still present as compared to the HPLC peak of the untreated peptide)
Resistance to DTT Reduction (10 mM) ([2]; 10 mM DTT in PBS, room temperature, 30 minutes, HPLC peak vs untreated peptide): Low (A peptide classified as low indicates that the majority (over 75%) of the HPLC peak of the treated peptide disappeared as compared to the HPLC peak of the untreated peptide)

B1: HuScn: Human siderocalin, reference protein in the SYPRO Orange melting assay (protein, UniProt P80188 21-198, looked up)
Neutrophil …: QDSTSDLIPAPPLSKVPLQQNFQDNQFQGKWYVVGLAGNAILREDKDPQKMYATIYELKEDKSYNVTSVLFRKKKCDYWIRTFVPGCQPGEFTLGNIKSYPGLTSYLVRVVSTNYNQHAMVFFKKVSQNREYFKITLYGRTKELTSELKENFIRFSKSLGLPENHIVFPVPIDQCIDG
melting temperature (Tm) [5]: 79 °C
